Consider 1 molecule from patent US20240190962A1 (IMMUNOWAKE, published 2024).

In assay [1] the target is T1, human IL-2 receptor (IL-2Rα, IL-2Rβ, IL-2Rγ) (human, UniProt P01589 22-272; P14784 27-551; P31785 23-369).
T1 sequence (looked up) 1: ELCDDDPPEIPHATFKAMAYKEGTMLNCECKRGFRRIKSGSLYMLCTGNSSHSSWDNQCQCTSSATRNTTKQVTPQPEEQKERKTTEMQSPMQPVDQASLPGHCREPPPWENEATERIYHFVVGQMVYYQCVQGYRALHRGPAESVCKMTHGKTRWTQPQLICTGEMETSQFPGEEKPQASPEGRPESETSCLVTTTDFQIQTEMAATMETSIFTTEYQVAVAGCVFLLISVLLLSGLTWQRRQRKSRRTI
T1 sequence (looked up) 2: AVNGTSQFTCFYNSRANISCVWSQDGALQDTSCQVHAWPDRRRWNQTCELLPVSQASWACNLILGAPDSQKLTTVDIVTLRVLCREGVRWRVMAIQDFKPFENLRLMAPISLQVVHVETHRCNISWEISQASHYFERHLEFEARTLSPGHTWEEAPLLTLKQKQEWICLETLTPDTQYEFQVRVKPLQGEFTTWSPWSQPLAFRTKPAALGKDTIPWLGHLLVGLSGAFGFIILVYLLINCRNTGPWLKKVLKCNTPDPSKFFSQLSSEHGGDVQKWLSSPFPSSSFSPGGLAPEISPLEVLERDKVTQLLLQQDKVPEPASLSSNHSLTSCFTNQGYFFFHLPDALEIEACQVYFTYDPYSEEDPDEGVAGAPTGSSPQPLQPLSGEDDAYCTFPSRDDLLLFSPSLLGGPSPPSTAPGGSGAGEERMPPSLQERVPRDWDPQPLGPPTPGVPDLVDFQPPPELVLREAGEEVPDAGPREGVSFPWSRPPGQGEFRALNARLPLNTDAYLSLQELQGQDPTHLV
T1 sequence (looked up) 3: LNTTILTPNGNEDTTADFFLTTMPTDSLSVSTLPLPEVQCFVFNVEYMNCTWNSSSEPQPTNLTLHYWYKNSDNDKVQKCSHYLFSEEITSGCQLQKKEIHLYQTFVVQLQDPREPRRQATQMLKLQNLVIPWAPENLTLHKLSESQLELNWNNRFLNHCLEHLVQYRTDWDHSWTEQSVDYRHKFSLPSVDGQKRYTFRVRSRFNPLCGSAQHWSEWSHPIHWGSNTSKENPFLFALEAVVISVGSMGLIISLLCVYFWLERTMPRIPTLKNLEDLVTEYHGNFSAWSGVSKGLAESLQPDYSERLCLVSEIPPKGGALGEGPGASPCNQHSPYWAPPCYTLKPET
In words: cell-based or functional assay.

For assay [2], the target named is T2, human PD-1 on HEK-PD-1-IL-2 cells (human, UniProt Q15116 25-288).
T2 construct: whole, on cells
T2 sequence (Q15116 25-288): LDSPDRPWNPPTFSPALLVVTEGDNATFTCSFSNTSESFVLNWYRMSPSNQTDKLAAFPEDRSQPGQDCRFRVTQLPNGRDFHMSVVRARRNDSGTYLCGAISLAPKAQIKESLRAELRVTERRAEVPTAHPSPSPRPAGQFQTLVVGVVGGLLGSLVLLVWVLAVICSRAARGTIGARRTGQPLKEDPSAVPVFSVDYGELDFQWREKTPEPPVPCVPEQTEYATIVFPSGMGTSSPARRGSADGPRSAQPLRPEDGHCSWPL
Description: FACS on HEK-PD-1-IL-2 cells.

B1: ligand-IL-2 mutant-PD-L2-Fc (Fc fusion)
chain 1: LFTVTVPKELYIIEHGSNVTLECNFDTGSHVNLGAITASLQKVENDTSPHRERATLLEEQLPLGKASFHIPQVQVRDEGQYQCIIIYGVAWDYKYLTLKVKASYRKINTHILKVPETDEVELTCQATGYPLAEVSWPNVSVPANTSHSRTPEGLYQVTSVLRLKPPPGRNFSCVFWNTHVRELTLASIDLQSQMEPRTHPTGGGGSAPTSSSTKKTQLQLEHLLLDLQMILNGINNYKNPKLTDMLTFEFYMPKKATELKHLQCLERELKPLEEVLNLAQSKNFHLRPRDLISNINVIVLELKGSETTFMCEYADETATIVEFLNRWITFCQSIISTLTDKTHTCPPCPAPEDEGGPSVFLFPPKPKDTLMISRTPEVTCVVVDVSHEDPEVKFNWYVDGVEVHNAKTKPREEQYNSTYRVVSVLTVLHQDWLNGKEYKCKVSNKALPAPIEKTISKAKGQPREPQVYVYPPSREEMTKNQVSLTCLVKGFYPSDIAVEWESNGQPENNYKTTPPVLDEDGSFALVSKLTVDKSRWQQGNVFSCSVMHEALHNHYTQKSLSLSPGK
chain 2: LFTVTVPKELYIIEHGSNVTLECNFDTGSHVNLGAITASLQKVENDTSPHRERATLLEEQLPLGKASFHIPQVQVRDEGQYQCIIIYGVAWDYKYLTLKVKASYRKINTHILKVPETDEVELTCQATGYPLAEVSWPNVSVPANTSHSRTPEGLYQVTSVLRLKPPPGRNFSCVFWNTHVRELTLASIDLQSQMEPRTHPTGGGGSDKTHTCPPCPAPEKKGGPSVFLFPPKPKDTLMISRTPEVTCVVVDVSHEDPEVKFNWYVDGVEVHNAKTKPREEQYNSTYRVVSVLTVLHQDWLNGKEYKCKVSNKALPAPIEKTISKAKGQPREPQVYVLPPSREEMTKNQVSLLCLVKGFYPSDIAVEWESNGQPENRYMTWPPVLDSDGSFFLYSKLTVDKSRWQQGNVFSCSVMHEALHNHYTQKSLSLSPGK
notes: also called IL-2(R38D/K43E/E61R)/PD-L2-Fc immunocytokine; construct #11
Take B1: in assay [1], the “Percent IL-2 signal transduction (HEK-IL-2 reporter assay)” value was determined as 2.4% and the “Percent IL-2 signal transduction (HEK-PD-1-IL-2 reporter assay)” value is 43.5%. For the same molecule, the binding result in assay [2] is recorded as “binds”.
